Data taken from patent US20240279324A1.

Biological target: VEGF (human) (UniProt P15692)
Assay: VEGF blocking assay (luminescence)

Chain of VEGF (human) (P15692 other isoform, or with tags, fused parts or gaps): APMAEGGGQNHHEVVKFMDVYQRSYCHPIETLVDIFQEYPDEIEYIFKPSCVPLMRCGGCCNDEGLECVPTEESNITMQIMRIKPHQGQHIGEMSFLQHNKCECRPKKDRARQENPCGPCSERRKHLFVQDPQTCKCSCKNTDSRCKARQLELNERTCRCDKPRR

Work on Avastin yielded an IC50 of 0.107 nM.
